Test results: PMC8670242, “Functional Characterization and Structural Insights Into Stereoselectivity of Pulegone Reductase in Menthol Biosynthesis” (Frontiers in Plant Science, 2021)

Biological target: the molecule itself
Assay: SEC; gel filtration of purified wild type MpPR on HiLoad 16/60 Superdex 200 in 10 mM Tris-HCl pH 8.0, 50 mM NaCl, 5 mM MgCl2, 1 mM DTT; molecular mass calibrated with high and low molecular weight calibration kits

B1: (+)-pulegone reductase from Mentha piperita (enzyme)
chain: MVMNKQIVLNNYINGSLKQSDLALRTSTICMEIPDGCNGAILVKNLYLSVNPYLILRMGKLDIPQFDSILPGSTIVSYGVSKVLDSTHPSYEKGELIWGSQAGWEEYTLIQNPYNLFKIQDKDVPLSYYVGILGMPGMTAYAGFFEICSPKKGETVFVTAAAGSVGQLVGQFAKMFGCYVVGSAGSKEKVDLLKNKFGFDDAFNYKEESDYDTALKRHFPEGIDIYFDNVGGKMLEAVINNMRVHGRIAVCGMVSQYSLKQPEGVHNLLKLIPKQIRMQGFVVVDYYHLYPKFLEMVLPRIKEGKVTYVEDISEGLESAPSALLGVYVGRNVGNQVVAVSRE
notes: (+)-pulegone reductase, Mentha piperita, UniProt Q6WAU0; gene cloned into pET28a with NheI and HindIII; also called MpPR; wild type MpPR; source: E. coli BL21(DE3), purified (Ni-NTA, gel filtration on Superdex 200)
Q: B1 was tested. Which “stoichiometry N” value did it give?
A: 2
